Measurements published in patent publication US20220204580A1 (AstraZeneca / MedImmune, published 2022).
Values belong to the binder of their own block, whether it stands above or below them. Numbered stars: 1 amine (or outer) side, 2 acyl side, 3 side chain; on linkers, the order of the positions; unused ones are H or OH. Bridge positions count the residues as written; N and C are the ends. Square brackets hold non-standard residues; d marks the D form. Side chains are listed from the residue outwards. Ends that are not written are not given here. * marks the point of attachment. C18 diacid = O=C(O)CCCCCCCCCCCCCCCCC(=O)*; γGlu = O=C(O)[C@H](CCC(=O)[*:2])N[*:1]; Aib = CC(C)(N)C(=O)O

What was measured:
[1] = target: T1, human amylin receptor (calcitonin receptor co-expressed with receptor activity modifying protein, RAMP3) (human, UniProt P30988 25-474; O60896 24-148); assay: cell-based or functional assay
T1 sequence (looked up) 1: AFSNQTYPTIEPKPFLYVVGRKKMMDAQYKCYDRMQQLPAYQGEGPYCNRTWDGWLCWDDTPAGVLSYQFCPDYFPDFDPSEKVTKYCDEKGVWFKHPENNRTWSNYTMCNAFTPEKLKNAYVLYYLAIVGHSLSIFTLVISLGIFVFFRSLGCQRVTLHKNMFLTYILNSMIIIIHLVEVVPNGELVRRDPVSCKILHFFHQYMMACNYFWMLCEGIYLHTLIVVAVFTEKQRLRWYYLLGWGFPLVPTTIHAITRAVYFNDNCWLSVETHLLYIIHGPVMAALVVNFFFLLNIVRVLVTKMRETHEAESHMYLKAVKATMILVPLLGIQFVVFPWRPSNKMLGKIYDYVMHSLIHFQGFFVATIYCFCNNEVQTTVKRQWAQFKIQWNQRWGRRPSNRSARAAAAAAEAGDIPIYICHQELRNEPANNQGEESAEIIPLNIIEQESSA
T1 sequence (looked up) 2: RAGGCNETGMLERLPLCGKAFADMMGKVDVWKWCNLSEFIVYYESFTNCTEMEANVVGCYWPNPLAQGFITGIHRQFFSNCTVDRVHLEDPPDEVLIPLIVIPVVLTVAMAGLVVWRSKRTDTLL

[2] = target: T2, human calcitonin receptor (human, UniProt P30988 25-474); assay: cell-based or functional assay
T2 sequence (looked up): T1 sequence (looked up) 1

B1: Peptide 101 (SEQ ID NO: 101) (peptide)
peptide: K([γGlu-C18 diacid])KCNTATCATQRLANFL[Aib]HSSNNFGPILPPTNVG[Aib]NTY-NH2
modifications: disulfide 3-8; N-terminus assumed
SMILES: CC[C@H](C)[C@H](NC(=O)[C@@H]1CCCN1C(=O)CNC(=O)[C@H](Cc1ccccc1)NC(=O)[C@H](CC(N)=O)NC(=O)[C@H](CC(N)=O)NC(=O)[C@H](CO)NC(=O)[C@H](CO)NC(=O)[C@H](Cc1c[nH]cn1)NC(=O)C(C)(C)NC(=O)[C@H](CC(C)C)NC(=O)[C@H](Cc1ccccc1)NC(=O)[C@H](CC(N)=O)NC(=O)[C@H](C)NC(=O)[C@H](CC(C)C)NC(=O)[C@H](CCCNC(=N)N)NC(=O)[C@H](CCC(N)=O)NC(=O)[C@@H](NC(=O)[C@H](C)NC(=O)[C@@H]1CSSC[C@H](NC(=O)[C@H](CCCCN)NC(=O)[C@@H](N)CCCCNC(=O)CC[C@H](NC(=O)CCCCCCCCCCCCCCCCC(=O)O)C(=O)O)C(=O)N[C@@H](CC(N)=O)C(=O)N[C@@H]([C@@H](C)O)C(=O)N[C@@H](C)C(=O)N[C@@H]([C@@H](C)O)C(=O)N1)[C@@H](C)O)C(=O)N[C@@H](CC(C)C)C(=O)N1CCC[C@H]1C(=O)N1CCC[C@H]1C(=O)N[C@H](C(=O)N[C@@H](CC(N)=O)C(=O)N[C@H](C(=O)NCC(=O)NC(C)(C)C(=O)N[C@@H](CC(N)=O)C(=O)N[C@H](C(=O)N[C@@H](Cc1ccc(O)cc1)C(N)=O)[C@@H](C)O)C(C)C)[C@@H](C)O
EC50 (cAMP production) [1]: 177 pM | Ratio (EC50 hCTR / EC50 hAMYR3) [1]: 2 | EC50 (cAMP production) [2]: 441 pM

B2: Peptide 103 (SEQ ID NO: 103) (peptide)
peptide: K([γGlu-C18 diacid])CNTATCATQRLANFLVHSSNNFGPI[dL]PPTNVGSNTY-NH2
modifications: disulfide 2-7
EC50 (cAMP production) [1]: 161 pM | Ratio (EC50 hCTR / EC50 hAMYR3) [1]: 12 | EC50 (cAMP production) [2]: 1880 pM

B3: Peptide 107 (SEQ ID NO: 107) (peptide)
peptide: K([γGlu-C18 diacid])KCNTATCATQRLANFLRHSSNNFGP[Aib]LPPTNVGSNTY-NH2
modifications: disulfide 3-8; N-terminus assumed
SMILES: CC(C)C[C@H](NC(=O)[C@H](CCCNC(=N)N)NC(=O)[C@H](CCC(N)=O)NC(=O)[C@@H](NC(=O)[C@H](C)NC(=O)[C@@H]1CSSC[C@H](NC(=O)[C@H](CCCCN)NC(=O)[C@@H](N)CCCCNC(=O)CC[C@H](NC(=O)CCCCCCCCCCCCCCCCC(=O)O)C(=O)O)C(=O)N[C@@H](CC(N)=O)C(=O)N[C@@H]([C@@H](C)O)C(=O)N[C@@H](C)C(=O)N[C@@H]([C@@H](C)O)C(=O)N1)[C@@H](C)O)C(=O)N[C@@H](C)C(=O)N[C@@H](CC(N)=O)C(=O)N[C@@H](Cc1ccccc1)C(=O)N[C@@H](CC(C)C)C(=O)N[C@@H](CCCNC(=N)N)C(=O)N[C@@H](Cc1c[nH]cn1)C(=O)N[C@@H](CO)C(=O)N[C@@H](CO)C(=O)N[C@@H](CC(N)=O)C(=O)N[C@@H](CC(N)=O)C(=O)N[C@@H](Cc1ccccc1)C(=O)NCC(=O)N1CCC[C@H]1C(=O)NC(C)(C)C(=O)N[C@@H](CC(C)C)C(=O)N1CCC[C@H]1C(=O)N1CCC[C@H]1C(=O)N[C@H](C(=O)N[C@@H](CC(N)=O)C(=O)N[C@H](C(=O)NCC(=O)N[C@@H](CO)C(=O)N[C@@H](CC(N)=O)C(=O)N[C@H](C(=O)N[C@@H](Cc1ccc(O)cc1)C(N)=O)[C@@H](C)O)C(C)C)[C@@H](C)O
EC50 (cAMP production) [1]: 1070 pM | Ratio (EC50 hCTR / EC50 hAMYR3) [1]: 25 | EC50 (cAMP production) [2]: 26300 pM

B4: Peptide 106 (SEQ ID NO: 106) (peptide)
peptide: K([γGlu-C18 diacid])KCNTATCATQRLANFLVHSSNNFGP[Aib]LPPTNVGSNTY-NH2
modifications: disulfide 3-8; N-terminus assumed
SMILES: CC(C)C[C@H](NC(=O)[C@H](CCCNC(=N)N)NC(=O)[C@H](CCC(N)=O)NC(=O)[C@@H](NC(=O)[C@H](C)NC(=O)[C@@H]1CSSC[C@H](NC(=O)[C@H](CCCCN)NC(=O)[C@@H](N)CCCCNC(=O)CC[C@H](NC(=O)CCCCCCCCCCCCCCCCC(=O)O)C(=O)O)C(=O)N[C@@H](CC(N)=O)C(=O)N[C@@H]([C@@H](C)O)C(=O)N[C@@H](C)C(=O)N[C@@H]([C@@H](C)O)C(=O)N1)[C@@H](C)O)C(=O)N[C@@H](C)C(=O)N[C@@H](CC(N)=O)C(=O)N[C@@H](Cc1ccccc1)C(=O)N[C@@H](CC(C)C)C(=O)N[C@H](C(=O)N[C@@H](Cc1c[nH]cn1)C(=O)N[C@@H](CO)C(=O)N[C@@H](CO)C(=O)N[C@@H](CC(N)=O)C(=O)N[C@@H](CC(N)=O)C(=O)N[C@@H](Cc1ccccc1)C(=O)NCC(=O)N1CCC[C@H]1C(=O)NC(C)(C)C(=O)N[C@@H](CC(C)C)C(=O)N1CCC[C@H]1C(=O)N1CCC[C@H]1C(=O)N[C@H](C(=O)N[C@@H](CC(N)=O)C(=O)N[C@H](C(=O)NCC(=O)N[C@@H](CO)C(=O)N[C@@H](CC(N)=O)C(=O)N[C@H](C(=O)N[C@@H](Cc1ccc(O)cc1)C(N)=O)[C@@H](C)O)C(C)C)[C@@H](C)O)C(C)C
EC50 (cAMP production) [1]: 473 pM | Ratio (EC50 hCTR / EC50 hAMYR3) [1]: 7 | EC50 (cAMP production) [2]: 3420 pM

The remaining lines, values ahead:

EC50 (cAMP production) [1]: 79 pM | Ratio (EC50 hCTR / EC50 hAMYR3) [1]: 23 | EC50 (cAMP production) [2]: 1820 pM
B5: Peptide 104 (SEQ ID NO: 104) (peptide)
peptide: K([γGlu-C18 diacid])CNTATCATQRLANFLVHSSNNFGPIL[dP]PTNVGSNTY-NH2
modifications: disulfide 2-7

EC50 (cAMP production) [1]: 479 pM | Ratio (EC50 hCTR / EC50 hAMYR3) [1]: 3 | EC50 (cAMP production) [2]: 1630 pM
B6: Peptide 102 (SEQ ID NO: 102) (peptide)
peptide: K([γGlu-C18 diacid])KCNTATCATQRLANFL[Aib]HSSNNFGPILPPTNVGS[Aib]TY-NH2
modifications: disulfide 3-8; N-terminus assumed
SMILES: CC[C@H](C)[C@H](NC(=O)[C@@H]1CCCN1C(=O)CNC(=O)[C@H](Cc1ccccc1)NC(=O)[C@H](CC(N)=O)NC(=O)[C@H](CC(N)=O)NC(=O)[C@H](CO)NC(=O)[C@H](CO)NC(=O)[C@H](Cc1c[nH]cn1)NC(=O)C(C)(C)NC(=O)[C@H](CC(C)C)NC(=O)[C@H](Cc1ccccc1)NC(=O)[C@H](CC(N)=O)NC(=O)[C@H](C)NC(=O)[C@H](CC(C)C)NC(=O)[C@H](CCCNC(=N)N)NC(=O)[C@H](CCC(N)=O)NC(=O)[C@@H](NC(=O)[C@H](C)NC(=O)[C@@H]1CSSC[C@H](NC(=O)[C@H](CCCCN)NC(=O)[C@@H](N)CCCCNC(=O)CC[C@H](NC(=O)CCCCCCCCCCCCCCCCC(=O)O)C(=O)O)C(=O)N[C@@H](CC(N)=O)C(=O)N[C@@H]([C@@H](C)O)C(=O)N[C@@H](C)C(=O)N[C@@H]([C@@H](C)O)C(=O)N1)[C@@H](C)O)C(=O)N[C@@H](CC(C)C)C(=O)N1CCC[C@H]1C(=O)N1CCC[C@H]1C(=O)N[C@H](C(=O)N[C@@H](CC(N)=O)C(=O)N[C@H](C(=O)NCC(=O)N[C@@H](CO)C(=O)NC(C)(C)C(=O)N[C@H](C(=O)N[C@@H](Cc1ccc(O)cc1)C(N)=O)[C@@H](C)O)C(C)C)[C@@H](C)O

EC50 (cAMP production) [1]: 364 pM | Ratio (EC50 hCTR / EC50 hAMYR3) [1]: 1 | EC50 (cAMP production) [2]: 459 pM
B7: Peptide 100 (SEQ ID NO: 100) (peptide)
peptide: K([γGlu-C18 diacid])KCNTATCATQRLANFL[Aib]HSSNNFGPILPPTNV[Aib]SNTY-NH2
modifications: disulfide 3-8; N-terminus assumed
SMILES: CC[C@H](C)[C@H](NC(=O)[C@@H]1CCCN1C(=O)CNC(=O)[C@H](Cc1ccccc1)NC(=O)[C@H](CC(N)=O)NC(=O)[C@H](CC(N)=O)NC(=O)[C@H](CO)NC(=O)[C@H](CO)NC(=O)[C@H](Cc1c[nH]cn1)NC(=O)C(C)(C)NC(=O)[C@H](CC(C)C)NC(=O)[C@H](Cc1ccccc1)NC(=O)[C@H](CC(N)=O)NC(=O)[C@H](C)NC(=O)[C@H](CC(C)C)NC(=O)[C@H](CCCNC(=N)N)NC(=O)[C@H](CCC(N)=O)NC(=O)[C@@H](NC(=O)[C@H](C)NC(=O)[C@@H]1CSSC[C@H](NC(=O)[C@H](CCCCN)NC(=O)[C@@H](N)CCCCNC(=O)CC[C@H](NC(=O)CCCCCCCCCCCCCCCCC(=O)O)C(=O)O)C(=O)N[C@@H](CC(N)=O)C(=O)N[C@@H]([C@@H](C)O)C(=O)N[C@@H](C)C(=O)N[C@@H]([C@@H](C)O)C(=O)N1)[C@@H](C)O)C(=O)N[C@@H](CC(C)C)C(=O)N1CCC[C@H]1C(=O)N1CCC[C@H]1C(=O)N[C@H](C(=O)N[C@@H](CC(N)=O)C(=O)N[C@H](C(=O)NC(C)(C)C(=O)N[C@@H](CO)C(=O)N[C@@H](CC(N)=O)C(=O)N[C@H](C(=O)N[C@@H](Cc1ccc(O)cc1)C(N)=O)[C@@H](C)O)C(C)C)[C@@H](C)O
